According to patent US20250152742A1, “COMPOSITIONS AND METHODS FOR NEUROLOGICAL DISEASES” (Trames Bio, Inc., priority 2022, published 2025):
Changes are numbered by the printed parent chain. Names may count otherwise.

Experiments:
[1] = test system: engineered chimeric receptor SEQ ID NO: 33 and its mutants (human α7-nAChR ligand binding domain / human GlyRα1 ion pore domain) in Lenti-X 293T cells; assay: YFP fluorescence quenching anion reporter plate reader assay (percent quench, EC50); assay type: cell-based; conditions: for YFP fluorescence quenching using Facinicline, 30 nM fac: ligand Facinicline 30 nM; for YFP fluorescence quenching using Facinicline, 300 nM fac: ligand Facinicline 300 nM; for YFP fluorescence quenching using Facinicline, 30 uM fac: ligand Facinicline 30 uM; for YFP fluorescence quenching using TC-6987, 1 uM tc6987: ligand TC-6987 1 uM; for YFP fluorescence quenching using TC-6987, 10 uM tc6987: ligand TC-6987 10 uM; for YFP fluorescence quenching using TC-6987, 500 uM tc6987: ligand TC-6987 500 uM; for YFP fluorescence quenching using CNL001 (percent quench): receptor named in row; for YFP fluorescence quenching using Varenicline, 3 nM var: ligand Varenicline 3 nM; for YFP fluorescence quenching using Varenicline, 30 nM var: ligand Varenicline 30 nM; for YFP fluorescence quenching using Varenicline, 300 nM var: ligand Varenicline 300 nM; for YFP fluorescence quenching using Varenicline, 500 nM var: ligand Varenicline 500 nM; for YFP fluorescence quenching using Varenicline, 1 uM var: ligand Varenicline 1 uM
Summary of the method: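 Lenti-X 293T cells co-expressing an anion-quenchable YFP were transiently transfected with receptor DNA, then ligand was added in NaI-substituted buffer (pH 7.2) after 30 min at 37 °C. Fluorescence was read about 2 min; percent quench = mean of last 10 s over 15 s pre-ligand baseline.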

[2] = test system: engineered receptors and wild type nAchRa7 expressed in HEK293T cells; assay: High throughput electrophysiology (IonFlux HT/Mercury automated patch clamp), EC50; assay type: cell-based, human
Procedure: To confirm the […] determined by plate reader as well as develop a better understanding of maximum current flow, the engineered receptors were subjected to high throughput electrophysiology system, as described below. For HEK293T studies, cDNAs encoding ion channels were cloned into pcDNA3.1 using standard recombination techniques. HEK293T cells from Clontech (Lenti-XTM 293T Cell Line) were cultured in DMEM supplemented with 10% FBS and 1% Pen/Strep to 40-50% confluence using standard cell culture protocols, transfected with ion channel plasmids at a concentration of 18 μg per 15 cm dish using Fugene 6, and grown for an additional 24 hours. Cells were then assayed on an electrophysiological system (IonFluxHT and/or Mercury, Fluxion Biosciences) in which dose-response relationships may be assessed through a microfluidics-based platform for establishing whole cell configurations. Ensemble plates were primed with extracellular buffer (140 mM NaCl, 5 mM KCl, 2 mM CaCl2), 1 mM MgCl2, 10 mM HEPES, and 10 mM glucose, pH 7.2 with NaOH, mOsm 310), intracellular buffer (145 mM CsCl, 2 mM CaCl2, 2 mM MgCl2, 10 mM HEPES, and 10 mM EGTA, pH 7.2 with CsOH, mOsm 305), as adapted from Lynagh and Lynch, and test compounds (stocks prepared fresh) diluted in extracellular buffer. Cells were then released from the plate with Accutase, centrifuged, resuspended in extracellular buffer, and loaded into Ensemble plates. Cells were then subjected to a standard protocol for priming, trapping, breaking, and establishing whole cell configuration, with cells held at −60 mV throughout the recording. After recording baseline, progressive doses of test compounds were applied using the IonFlux software to assess dose response relationships. Data were then analyzed off-line using custom Python scripts to convert data to .csv format, re-plot traces, and apply QC measurements to reject unstable recordings (i.e. thresholding based on access resistance and/or standard deviation in baseline, as well as artifact rejection). Peak currents were then calculated, and population data were fit using a 4-parameter logistic equation as described by the Hill Equation. Currents were measured on an automated patch clamp system (Fluxion Biosciences) following 1 second addition of drug and the EC50 values calculated are tabulated below in Table 22A and Table 22B below and Table 21A and Table 21B above (in Example 2).

[3] = 3 nM brd (TC-5619/Bradanicline)
[4] = 30 nM brd (TC-5619/Bradanicline)
[5] = 300 nM brd (TC-5619/Bradanicline)

B1: CODA536: engineered receptor: L131D, S172D in SEQ ID NO: 33 (protein)
chain: MRCSPGGVWLALAASLLHVSLQGEFQRKLYKELVKNYNPLERPVANDSQPLTVYFSLSLLQIMDVDEKNQVLTTNIWLQMSWTDHYLQWNVSEYPGVKTVRFPDGQIWKPDILLYNSADERFDATFHTNVDVNSSGHCQYLPPGIFKSSCPMDLKNFPMDVQTCKLKFGSWDYGGWSLDLQMQEADISGYIPNGEWDLVGIPGKRSERFYECCKEPYPDVTFTVTMRRRMGYYLIQMYIPSLLIVILSWISFWINMDAAPARVGLGITTVLTMTTQSSGSRASLPKVSYVKAIDIWMAVCLLFVFSALLEYAAVNFVSRQHKELLRFRRKRRHHKSPMLNLFQEDEAGEGRFNFSAYGMGPACLQAKDGISVKGANNSNTTNPPPAPSKSPEEMRKLFIQRAKKIDKISRIGFPMAFLIFNMFYWIIYKIVRREDVHNQ
modifications: synthetic sequence of chimeric LGIC
[1]; 1 nM brd (TC-5619/Bradanicline)
  YFP fluorescence quenching using TC-5619/Bradanicline (percent quench): −1.24%
[1]; [3]
  YFP fluorescence quenching using TC-5619/Bradanicline (percent quench): 0.25%
[1]; 10 nM brd (TC-5619/Bradanicline)
  YFP fluorescence quenching using TC-5619/Bradanicline (percent quench): −2.57%
[1]; 30 nM TC-6683
  YFP fluorescence quenching using TC-6683 (percent quench): −22.285%
[1]; [4]
  YFP fluorescence quenching using TC-5619/Bradanicline (percent quench): 0.78%
[1]; 50 nM abt (ABT-126)
  YFP fluorescence quenching using ABT-126 (percent quench): −3.19%
[1]; 100 nM CNL002
  YFP fluorescence quenching (percent quench): 71.72%
[1]; 100 nM abt (ABT-126)
  YFP fluorescence quenching using ABT-126 (percent quench): 7.58%
[1]; 100 nM azd0328
  YFP fluorescence quenching using AZD-0328 (percent quench): 51.44%
[1]; 100 nM brd (TC-5619/Bradanicline)
  YFP fluorescence quenching using TC-5619/Bradanicline (percent quench): 4.51%
[1]; 300 nM TC-6683
  YFP fluorescence quenching using TC-6683 (percent quench): −23.926%
[1]; 300 nM abt (ABT-126)
  YFP fluorescence quenching using ABT-126 (percent quench): −1.65%
[1]; 300 nM azd0328
  YFP fluorescence quenching using AZD-0328 (percent quench): 77.12%
[1]; [5]
  YFP fluorescence quenching using TC-5619/Bradanicline (percent quench): 30.97%
[1]; 1 uM CNL002
  YFP fluorescence quenching (percent quench): 77.26%
[1]; 1 uM abt (ABT-126)
  YFP fluorescence quenching using ABT-126 (percent quench): 31.29%
[1]; 1 uM brd (TC-5619/Bradanicline)
  YFP fluorescence quenching using TC-5619/Bradanicline (percent quench): 44.41%
[1]; 3 uM TC-6683
  YFP fluorescence quenching using TC-6683 (percent quench): −20.514%
[1]; 10 uM ach (acetylcholine)
  YFP fluorescence quenching (percent quench): −12.91%
[1]; 30 uM CNL002
  YFP fluorescence quenching (percent quench): 77.5%
[1]; 30 uM TC-6683
  YFP fluorescence quenching using TC-6683 (percent quench): −3.078%
[1]; 30 uM azd0328
  YFP fluorescence quenching using AZD-0328 (percent quench): 79.26%
[1]; 100 uM TC-6683
  YFP fluorescence quenching using TC-6683 (percent quench): 7.37%
[1]; 100 uM ach (acetylcholine)
  YFP fluorescence quenching (percent quench): −20.88%
[1]; 1 mM ach (acetylcholine)
  YFP fluorescence quenching (percent quench): 79.85%
[1]; 3 mM ach (acetylcholine)
  YFP fluorescence quenching (percent quench): 79.98%
[1]
  YFP fluorescence quenching using Facinicline, 30 nM fac: 24.15
  YFP fluorescence quenching using Facinicline, 300 nM fac: 80.17
  YFP fluorescence quenching using Facinicline, 30 uM fac: 79.9
  YFP fluorescence quenching using TC-6987, 1 uM tc6987: −18.24
  YFP fluorescence quenching using TC-6987, 10 uM tc6987: −23.06
  YFP fluorescence quenching using TC-6987, 500 uM tc6987: −19.3
[1]; ligand Facinicline 10 uM
  YFP fluorescence quenching using Facinicline, 10 uM fac: 81.34
[2]; ligand AZD-0328
  fold increased potency towards AZD-0328 compared to wild type control receptor: at least 10 fold
[2]; ligand RG-3487
  fold increased potency towards RG-3487 compared to wild type receptor: at least 10 fold

B2: CODA109: engineered receptor: S170T in SEQ ID NO: 33 (protein)
chain: B1 chain with D131L, S170T, D172S
modifications: synthetic sequence of chimeric LGIC
[1]; 1 nM CNL001, first column so headed
  YFP fluorescence quenching using CNL001 (percent quench): 19.755%
[1]; 1 nM CNL001, second column so headed
  YFP fluorescence quenching using CNL001 (percent quench): 65.484%
[1]; [3]
  YFP fluorescence quenching using TC-5619/Bradanicline (percent quench): 70.58%
[1]; 10 nM CNL001, first column so headed
  YFP fluorescence quenching using CNL001 (percent quench): 79.024%
[1]; 10 nM CNL001, second column so headed
  YFP fluorescence quenching using CNL001 (percent quench): 81.563%
[1]; [4]
  YFP fluorescence quenching using TC-5619/Bradanicline (percent quench): 80.71%
[1]; 50 nM CNL001, first column so headed
  YFP fluorescence quenching using CNL001 (percent quench): 81.926%
[1]; 50 nM CNL001, second column so headed
  YFP fluorescence quenching using CNL001 (percent quench): 83.092%
[1]; 50 nM abt (ABT-126)
  YFP fluorescence quenching using ABT-126 (percent quench): 55.83%
[1]; 100 nM CNL001, first column so headed
  YFP fluorescence quenching using CNL001 (percent quench): 83%
[1]; 100 nM CNL001, second column so headed
  YFP fluorescence quenching using CNL001 (percent quench): 83.811%
[1]; 100 nM CNL002
  YFP fluorescence quenching (percent quench): 73.48%
[1]; 100 nM abt (ABT-126)
  YFP fluorescence quenching using ABT-126 (percent quench): 68.89%
[1]; 100 nM azd0328
  YFP fluorescence quenching using AZD-0328 (percent quench): 84.01%
[1]; 300 nM abt (ABT-126)
  YFP fluorescence quenching using ABT-126 (percent quench): 72.52%
[1]; 300 nM azd0328
  YFP fluorescence quenching using AZD-0328 (percent quench): 87.08%
[1]; [5]
  YFP fluorescence quenching using TC-5619/Bradanicline (percent quench): 80.66%
[1]; 1 uM CNL001, first column so headed
  YFP fluorescence quenching using CNL001 (percent quench): 81.834%
[1]; 1 uM CNL001, second column so headed
  YFP fluorescence quenching using CNL001 (percent quench): 83.858%
[1]; 1 uM CNL002
  YFP fluorescence quenching (percent quench): 70.03%
[1]; 1 uM abt (ABT-126)
  YFP fluorescence quenching using ABT-126 (percent quench): 70.96%
[1]; 10 uM ach (acetylcholine)
  YFP fluorescence quenching (percent quench): 82.91%
[1]; 30 uM ach (acetylcholine)
  YFP fluorescence quenching (percent quench): 82.53%
[1]; 30 uM azd0328
  YFP fluorescence quenching using AZD-0328 (percent quench): 87.27%
[1]; 50 uM ach (acetylcholine)
  YFP fluorescence quenching (percent quench): 82.11%
[1]; 100 uM ach (acetylcholine)
  YFP fluorescence quenching (percent quench): 83.68%
[1]; 1 mM ach (acetylcholine)
  YFP fluorescence quenching (percent quench): 69.89%
[1]; 3 mM ach (acetylcholine)
  YFP fluorescence quenching (percent quench): 78.12%
[1]
  YFP fluorescence quenching using Facinicline, 30 nM fac: 76.45
  YFP fluorescence quenching using Facinicline, 300 nM fac: 71.09
  YFP fluorescence quenching using Facinicline, 30 uM fac: 69.41
  YFP fluorescence quenching using TC-6987, 1 uM tc6987: 71.45
  YFP fluorescence quenching using TC-6987, 10 uM tc6987: 71.04
  YFP fluorescence quenching using TC-6987, 500 uM tc6987: 66.2
[1]; ligand Facinicline 100 nM
  YFP fluorescence quenching using Facinicline, 100 nM fac: 82.45
[1]; first column
  YFP fluorescence quenching using Varenicline, 3 nM var: −20.96
  YFP fluorescence quenching using Varenicline, 30 nM var: −16.094
  YFP fluorescence quenching using Varenicline, 300 nM var: 64.373
  YFP fluorescence quenching using Varenicline, 500 nM var: 71.892
  YFP fluorescence quenching using Varenicline, 1 uM var: 75.461
[1]; second column
  YFP fluorescence quenching using Varenicline, 3 nM var: −19.953
  YFP fluorescence quenching using Varenicline, 30 nM var: −21.502
  YFP fluorescence quenching using Varenicline, 300 nM var: 71.198
  YFP fluorescence quenching using Varenicline, 500 nM var: 73.53
  YFP fluorescence quenching using Varenicline, 1 uM var: 78.578
